Several values for one entry are separate records, joined by “and”; a condition that tells them apart may be missing. Equal entries are not always repeated.
Columns and labels:
[1] = target: Concanavalin A (Con A) internal_change (UniProt P02866); assay: BLI; details: after the 20-nt 5' primer: every T = mannose-clicked C8-alkyne-dU (4), binding buffer, salt, pH and temperature not given in the material (hemagglutination: 30 min preincubation at RT)
[2] = target: Concanavalin A (Con A) internal_change (UniProt P02866); assay: particle flow cytometry; details: after the 20-nt 5' primer: every T = mannose-clicked C8-alkyne-dU (4), binding buffer, salt, pH and temperature not given in the material (hemagglutination: 30 min preincubation at RT)
[3] = every C = 5-formyl-dC (2), primer unmodified

In the case of “GATCCCAGTCCGAAGTAATCGTTGCATCTGCACGACTGGTGAGCTTGAGTGGCAGAAGAACTTGTGCAAACGGCTATAGG [ConA-3-1]”, the Kd [1, 3] is reported as 5.8 nM and the Kd [2, 3] is reported as 20 nM.

With “GATCCCAGTCCGAAGTAATCGTTGCATCTGCACGACTGGTGAGCTTGAGTGGCAGAAGAACTTGTGCAAACGGCTATAGG [ConA-3-1m]” the Kd ([1]; C natural) was 3.2 nM and 5.3 nM and the Kd ([2]; C natural) was 17 nM.

Reference: paper PMC6929039
